The source of these data is publication PMC5548745, “Agonist-induced dimer dissociation as a macromolecular step in G protein-coupled receptor signaling” (Nature Communications, 2017).

“Also recorded” adds a separate entry of the source.

First the molecules themselves.
T1: FZD6 TM4 synthetic peptide (human)
T1 construct: flanking lysines added to the transmembrane stretch; transmembrane helix 4 of human FZD6, Uniprot ID O60353; Whole peptide as printed: [residues removed]; source: synthetic peptide (Pepscan Therapeutics or Fmoc synthesis, HPLC purified)
T1 peptide: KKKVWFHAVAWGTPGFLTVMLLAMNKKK

B1: Frizzled 6 (FZD6), wild type, expressed as V5-FZD6-mCherry and as FZD6-GFP (receptor, human, UniProt O60353 19-706, looked up)
chain: HSLFTCEPITVPRCMKMAYNMTFFPNLMGHYDQSIAAVEMEHFLPLANLECSPNIETFLCKAFVPTCIEQIHVVPPCRKLCEKVYSDCKKLIDTFGIRWPEELECDRLQYCDETVPVTFDPHTEFLGPQKKTEQVQRDIGFWCPRHLKTSGGQGYKFLGIDQCAPPCPNMYFKSDELEFAKSFIGTVSIFCLCATLFTFLTFLIDVRRFRYPERPIIYYSVCYSIVSLMYFIGFLLGDSTACNKADEKLELGDTVVLGSQNKACTVLFMLLYFFTMAGTVWWVILTITWFLAAGRKWSCEAIEQKAVWFHAVAWGTPGFLTVMLLAMNKVEGDNISGVCFVGLYDLDASRYFVLLPLCLCVFVGLSLLLAGIISLNHVRQVIQHDGRNQEKLKKFMIRIGVFSGLYLVPLVTLLGCYVYEQVNRITWEITWVSDHCRQYHIPCPYQAKAKARPELALFMIKYLMTLIVGISAVFWVGSKKTCTEWAGFFKRNRKRDPISESRRVLQESCEFFLKHNSKVKHKKKHYKPSSHKLKVISKSMGTSTGATANHGTSAVAITSHDYLGQETLTEIQTSPETSMREVKADGASTPRLREQDCGEPASPAASISRLSGEQVDGKGQAGSVSESARSEGRISPKSDITDTGLAQSNNLQVPSSSEPSSLKGSTSLLVHPVSGVRKEQGGGCHSDT
notes: Frizzled 6 (FZD6), human, Uniprot ID O60353; Two differently tagged copies of the same receptor are tested against each other, so they are written as one molecule; The FCS experiment used FZD6-GFP alone; also called FZD6 wt; source: HEK293, transiently transfected (Lipofectamine 2000), in living cells; not shown: V5 (on the crosslinked copy), N-terminal, kept; mCherry (on the crosslinked copy), …
B2: FZD6-GFP: GFP-tagged human FZD6 receptor construct (protein)
chain: B1 chain
modifications: left off: V5 (on the crosslinked copy), N-terminal, kept | mCherry (on the crosslinked copy), C-terminal, kept | GFP (on the other, mobile copy), C-terminal, kept
notes: GFP-tagged human FZD6 receptor construct
B3: FZD6 TM5 synthetic peptide (peptide)
peptide: KKLDASRYFVLLPLCLCVFVGLSLLLAGIISKKK
notes: flanking lysines added to the transmembrane stretch; transmembrane helix 5 of human FZD6, Uniprot ID O60353; source: synthetic peptide (Pepscan Therapeutics or Fmoc synthesis, HPLC purified)

The test system of series [1] is ERK1/2 phosphorylation in HEK293 cells. The experiment in a line: P-ERK1/2 immunoblot, HEK293 cells expressing SNAP-FZD6 constructs. In kind it is cell-based. The following applies: HEK293; C59 5 µM overnight. On the procedure: Fig. 6 Relationship between FZD6 dimerization and phosphorylation of ERK1/2. a Mouse lung epithelial (MLE-12) cells were stimulated with WNT-5A (300 ng ml^−1) for 0, 2.5, 5, 10, 20 min. Cell lysates were analyzed for P-ERK1/2 and β-actin by immunoblotting. Additional information in Supplementary Fig. 6. b Bar graph summarizes three independent experiments. Densitometry data were normalized to the unstimulated control. […] Additional information in Supplementary Fig. 6. SNAP-FZD6 wt- and SNAP-FZD6 dimer mutant-induced ERK1/2 phosphorylation in the absence e and presence f of the porcupine inhibitor C59 (5 µM, overnight) were probed by immunoblotting for the SNAP-tag, P-ERK1/2, total ERK1/2 and β-actin. g The bar graph summarizes densitometry data of P-ERK1/2 normalized to total ERK1/2 from 6 different experiments. P = 0.0005; F (2, 15) = 13.08. ***P < 0.001. Empty vector transfection was used as mock. h Increasing amounts of plasmid of either SNAP-FZD6 wt or SNAP-FZD6 dimer mutant in the presence of C59 show a dose-dependent increase in P-ERK1/2 only with the dimer mutant. Data from three independent experiments for the dimer mutant were fit to a linear least-squares model (slope = 0.40 ± 0.10; R ^2 = 0.5943) and this line is shown superimposed. […] This dissociation-dependent activation can be evoked by agonist (WNT^high) or mutation of the dimer interface (symbolized by red stars). WNT^low conditions can be achieved in the presence of C59, which reduces FZD6 wt signaling
MLE-12 or HEK293 cells (ATCC) were plated in a 24- or 48-well plate at a density of 100,000 or 50,000 cells/well, respectively. After 24 h, cells were transfected using Lipofectamine 2000 according to the manufacturer’s instructions. Cells were stimulated (24 h post-transfection) with 300 ng ml^−1 recombinant carrier-free WNT-5A (CF WNT-5A; R&D Systems). Stimulation was stopped by the addition of lysis buffer (1% NP-40, 150 mM NaCl, 50 mM Tris/HCl pH 8). Lysates were sonicated and analyzed by 7.5 or 10% Mini-PROTEAN TGX precast polyacrylamide gels (Bio-Rad) and transferred to PVDF membranes using the Trans-Blot Turbo system (Bio-Rad). After blocking with 5% milk or BSA in TBS-T, membranes were incubated with primary antibodies in blocking buffer: mouse anti-β-actin (1:30,000; Sigma #A5441), rabbit anti-FZD6 (1:1000; NovusBio #NBP1-00830), rabbit anti-Phospho-p44/42 MAPK (ERK1/2) (Thr202/Tyr204) (1:1000; Cell Signaling Technology #9101 L), rabbit anti-p44/42 MAPK (ERK1/2) (1:1000; Cell Signaling Technology #9102), rabbit anti-Phospho-C-RAF (Ser338) (1:1000; Cell Signaling Technology #56A6), rabbit anti-SNAP tag (1:1000, New England Biolabs #P9310S), and rabbit anti-HA (1:4000, abcam #ab9110) overnight at 4 °C. Proteins were detected with horseradish peroxidase-conjugated secondary antibodies (goat anti-rabbit and goat anti-mouse (Pierce)) and Clarity Western ECL Blotting Substrate (Bio-Rad). All uncropped immunoblots can be found in the Supplementary Information.

The subject of another series is porcupine. The following applies: cited from earlier work.
Series [2] deals with the molecule itself. The experiment in a line: fluorescence cross-correlation spectroscopy (FCCS); living HEK293 cells co-expressing FZD6-GFP and V5-FZD6-mCherry at low levels (10-1000 receptors per µm^2), no crosslinking; dynamic measurements before and after WNT-5A (300 ng ml^-1).
For series [3], the system named is FZD6–FZD6 dimer. The experiment in a line: dcFRAP of V5-FZD6-mCherry/FZD6-GFP (FZD6 dimerization). In kind it is cell-based, human. Put shortly: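 Live cells co-expressing V5-FZD6-mCherry and FZD6-GFP, surface V5 tag crosslinked with biotin-anti-V5 plus avidin in BE buffer at RT. Membrane areas photobleached, recovery imaged (488/561 nm) over 100 s; mobile fraction from background/bleach-corrected, pre-bleach-normalized intensity at 85-101 s. Cells with <40% crosslink-induced mobility reduction excluded.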

The test system of series [4] is FZD6–FZD6 dimer. The experiment in a line: dynamic FCCS of V5-FZD6-mCherry/FZD6-GFP. Type of series: cell-based, human. The following applies: HEK293; representative cell; G cc normalized to green auto-correlation amplitude; prior to stimulation. On the procedure:
HEK293 cells were grown over-night in Lab-Tek eight-well chamber-glass bottom slides (Nunc, Thermo Scientific, Langensbold, Germany) coated with matrigel. Data were acquired in 10 s intervals. Collection intervals containing abnormal fluorescence peaks (presumably resulting from aggregates or ROIs where the overall fluorescence was decaying, putatively due to membrane movements) were discarded from the overall analysis. The total included measurements time ranged from 20 to 80 s per cell. Measurements were only undertaken on cells where the fluorescence was well localized to the cell surface membrane, as judged by visual inspection in the wide-field and confocal mode. Autofluorescence, as well as fluorescence from both GFP and mCherry in the intracellular region was negligible. The number of fluorescent receptors assessed in each experiment varied from 10–1000 receptors per µm^2 in each HEK293 cell.
Dynamic FCCS measurements of WNT-dependent dissociation and re-association of FZD (Fig. 5c–e) were performed on an FCS/FCCS-equipped Zeiss 780 confocal microscope (Zeiss, Jena, Germany). The instrument details were the same as those of the Confocor 3 described above, with the exception that 561 nm excitation was used for excitation of mCherry, that GFP emission was detected from 500 to 550 nm, and that mCherry emission was detected from 600 to 690 nm. Experiments on cells were performed as described above, with each measurement point consisting of 3–6 measurements of 10 s each. […]
Assuming that M is FZD6-GFP (green) and N is FZD6-mCherry (red) and that all FZD6 form dimers, then the probability of finding a green–red FZD6 dimer is pgr=2×M×N/(M+N)(M+N-1)≈2×M×N/M+N^2=(2cgg+cgr)(2crr+cgr)/2cgg+cgr+crr^2 , where c gg, c gr, and c rr are the corresponding concentrations of the only green FZD6 dimers, the red and green FZD6 dimers and the only red FZD6 dimers. […] From the experiments, we determine the concentrations for c gg, c gr and c rr and compare the concentrations c gr with the c′gr for each cell to get an estimation of how close the model is to experimental data: cgr/c′gr=2cgr×(cgg+cgr+crr)/((2cgg+cgr)(2crr+cgr)) Analysis of the dynamic FCCS measurements of WNT-dependent dissociation and re-association of FZD6: Auto-correlation and cross-correlation curves were analyzed as described above and the amplitudes G g(0)−1, G r(0)−1, and G cc(0)−1 from each of the more than 300 measurements of 10 s duration were estimated by fitting to theoretical models. […]
With the settings described above for detection of emission, the crosstalk from the GFP channel to the mCherry channel, defined as the intensity detected in the mCherry channel divided by the intensity detected in the GFP channel, I r/I g, for a cell expressing only FZD-GFP, was 0.051 or 5.1 %. […]

Series [5] concerns FZD6–FZD6 dimer. The series is described as follows: ratiometric FRET of C-terminally tagged FZD6 constructs. In kind it is cell-based, human.
Series [6] concerns the target B1. The series is described as follows: cell-based or functional assay.
The target of series [7] is T1, FZD6 TM4 synthetic peptide. The series is described as follows: SEC; Superdex 30 analytical column, triple distilled water + 0.01% DDM, room temperature; 500 µM of each peptide, incubated together for 2 h. As to conditions: both partners purified.

Turning to `Cc1cc(-c2ccc(CC(=O)Nc3ccc(-c4cccnc4)cc3)cc2)ccn1` [C59, 2-[4-(2-Methylpyridin-4-yl)phenyl]-N-[4-(pyridin-3-yl)phenyl]acetamide], the “effect of C59 on FZD6 wt-induced P-ERK1/2” value in series [1] is reported as “reduced to basal”. In the series on porcupine, the “effect on endogenous WNT secretion” value was “blocks secretion of WNT proteins; also recorded: abrogates endogenous WNT secretion”.
In the case of B1, the “stoichiometry N” value in series [2] came out at 2.
As to B2, the “mobile fraction of FZD6-GFP before CL” value with FZD6–FZD6 dimer [3] (HEK293, basal, without biotinylated anti-V5/avidin crosslinking, 85–101 s, mean ± s.e.m., N = 21 ROIs) is 80.8 ± 2.0%. In addition, the “mobile fraction of FZD6-GFP after CL” value in the series with FZD6–FZD6 dimer [3] (HEK293, with biotinylated anti-V5/avidin crosslinking, 85–101 s, mean ± s.e.m., N = 31 ROIs) came to 70.7 ± 2.4%. The dimeric fraction result with FZD6–FZD6 dimer [3] (extrapolated from varying expression ratios, mCherry to GFP 1:1) is recorded as “around 25%”. For the same molecule, the “red molecules also green prior to WNT-5A” value in the series on FZD6–FZD6 dimer [4] is reported as 11%. Moreover, the “energy transfer between fluorophores (FRET)” value in the series with FZD6–FZD6 dimer [5] is given as “not able to detect energy transfer”.
As to KKLDASRYFVLLPLCLCVFVGLSLLLAGIISKKK [HA-tagged TM5 minigene of FZD6], in series [6], the “basal P-ERK1/2 level (immunoblot) in MLE-12 cells expressing the TM5 minigene, which interferes with the FZD6-FZD6 dimer; the TM1 minigene had no effect” value amounted to 56.7%.
Regarding B3, in series [7], the binding result was “binds”.
